Laboratory results from article PMC9352680, “A comprehensive thermodynamic model for RNA binding by the Saccharomyces cerevisiae Pumilio protein PUF4”.

Molecular target: T1, PUF4 RNA-binding domain (Saccharomyces cerevisiae, UniProt P25339 537-888)
T1 sequence: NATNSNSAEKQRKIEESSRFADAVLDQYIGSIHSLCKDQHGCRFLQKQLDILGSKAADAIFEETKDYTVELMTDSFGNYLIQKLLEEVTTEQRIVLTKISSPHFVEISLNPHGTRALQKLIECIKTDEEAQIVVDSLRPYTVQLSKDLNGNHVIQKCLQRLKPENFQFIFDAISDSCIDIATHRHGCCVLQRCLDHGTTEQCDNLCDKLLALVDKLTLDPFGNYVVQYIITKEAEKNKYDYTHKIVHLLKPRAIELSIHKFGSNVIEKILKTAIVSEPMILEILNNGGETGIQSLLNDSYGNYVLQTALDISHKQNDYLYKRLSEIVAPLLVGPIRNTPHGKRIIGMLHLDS
Assay: Mg; RNA-MaP; 20 mM Na-HEPES pH 7.4, 30 mM KOAc, 0.75 mM MgCl2, 0.1% Tween-20, 5% glycerol, 0.1 mg/mL BSA, 2 mM DTT; 25 C; 0.0125-409.6 nM protein
Details: tags: N-His6-TEV cleaved; C-SNAP kept, Cy3B-labelled; label: tethered on chip by stalled RNA polymerase

Row | Binder | Kd [nM]
1 | UCUCUUCGCUGUAUAUAUAUCUCUU (ssRNA) [Id_i_S1_P3E.5_K3.1_C3.3_[T-3C]_[C-2G]_[T-1C]_H3.1_A3.1_F3.1_T3.2] | 8.53
2 | UCUCUUGACUAUAUAUAUAUCUCUU (ssRNA) [Id_i_S1_P3E.6_K3.2_C3.3_[T-3G]_[C-2A]_[T-1C]_H3.2_A3.1_F3.1_T3.2] | 806
3 | UCUCUUCUCUAUAUAUAUAUCUCUU (ssRNA) [Id_i_S1_P3E.6_K3.2_C3.3_[T-3C]_[C-2T]_[T-1C]_H3.2_A3.1_F3.1_T3.2] | 389
4 | UCUCUUGUCUAUAUAUAUAUCUCUU (ssRNA) [Id_i_S1_P3E.6_K3.2_C3.3_[T-3G]_[C-2T]_[T-1C]_H3.2_A3.1_F3.1_T3.2] | 102
5 | UCUCUUCUCACACUAUAUAUCUCUU (ssRNA) [Id_i_S1_P3E.7_K3.3_C3.3_[T-3C]_[C-2T]_[T-1C]_H3.3_A3.1_F3.1_T3.2] | > 2300
6 | UCUCUUCUAACACUAUAUAUCUCUU (ssRNA) [Id_i_S1_P3E.7_K3.3_C3.3_[T-3C]_[C-2T]_[T-1A]_H3.3_A3.1_F3.1_T3.2] | > 2300
7 | UCUCUUGUCUGUAUAUAUAUCUCUU (ssRNA) [Id_i_S1_P3E.5_K3.1_C3.3_[T-3G]_[C-2T]_[T-1C]_H3.1_A3.1_F3.1_T3.2] | 4.63
8 | UCUCUUACACACUAUAUAUCUCUU (ssRNA) [Id_i_S1_P3E.4_K3.3_C3.2_[C-2A]_[T-1C]_H3.3_A3.1_F3.1_T3.2] | 998
9 | Id_i_S2_P3E.5_K3.1_C3.3_[T-3G]_[C-2T]_[T-1C]_H3.1_A3.1_F3.1_T3.2 (ssRNA) RNA: UUUGAUUAAUAUGAUAUCGUUCUUUCUGUCUGUAUAUAUAUUCUUUCUCGAUAUCAUAUUAAUCUUU | 2.83
10 | Id_i_S2_P3E.5_K3.1_C3.3_[T-3C]_[C-2T]_[T-1A]_H3.1_A3.1_F3.1_T3.2 (ssRNA) RNA: UUUGAUUAAUAUGAUAUCGUUCUUUCUCUAUGUAUAUAUAUUCUUUCUCGAUAUCAUAUUAAUCUUU | 3.83
11 | Id_i_S2_P3E.5_K3.1_C3.3_[T-3C]_[C-2T]_[T-1G]_H3.1_A3.1_F3.1_T3.2 (ssRNA) RNA: UUUGAUUAAUAUGAUAUCGUUCUUUCUCUGUGUAUAUAUAUUCUUUCUCGAUAUCAUAUUAAUCUUU | 1.23
12 | Id_i_S2_P3E.5_K3.1_C3.3_[T-3C]_[C-2A]_[T-1C]_H3.1_A3.1_F3.1_T3.2 (ssRNA) RNA: UUUGAUUAAUAUGAUAUCGUUCUUUCUCACUGUAUAUAUAUUCUUUCUCGAUAUCAUAUUAAUCUUU | 1.09
13 | Id_i_S2_P3E.5_K3.1_C3.3_[T-3C]_[C-2T]_[T-1C]_H3.1_A3.1_F3.1_T3.2 (ssRNA) RNA: UUUGAUUAAUAUGAUAUCGUUCUUUCUCUCUGUAUAUAUAUUCUUUCUCGAUAUCAUAUUAAUCUUU | 0.917
14 | UCUCUUGUUAUAUUAUCUCUU (ssRNA) [Ib_S1_P4E.1_K4.1_C4.1_H4.1_[T1G]_[G2T]_A4.1_F4.1_T4.1] | 12.3
15 | UCUCUUGGCUGUAUAUAUAUCUCUU (ssRNA) [Id_i_S1_P3E.5_K3.1_C3.3_[T-3G]_[C-2G]_[T-1C]_H3.1_A3.1_F3.1_T3.2] | 6.92
16 | Id_ii_S2_P3E.2_K3.1_C3.2_[C-2T]_[T-1G]_H3.1_A3.1_F3.1_T3.2 (ssRNA) RNA: UUUGAUUAAUAUGAUAUCGUUCUUUCUUGUGUAUAUAUAUUCUUUCUCGAUAUCAUAUUAAUCUUU | 1.57
17 | Id_ii_S2_P3E.2_K3.1_C3.2_[C-2A]_[T-1C]_H3.1_A3.1_F3.1_T3.2 (ssRNA) RNA: UUUGAUUAAUAUGAUAUCGUUCUUUCUACUGUAUAUAUAUUCUUUCUCGAUAUCAUAUUAAUCUUU | 1.6
18 | Id_ii_S2_P3E.3_K3.2_C3.2_[C-2T]_[T-1C]_H3.2_A3.1_F3.1_T3.2 (ssRNA) RNA: UUUGAUUAAUAUGAUAUCGUUCUUUCUUCUAUAUAUAUAUUCUUUCUCGAUAUCAUAUUAAUCUUU | 71.4
19 | Id_ii_S2_P3E.4_K3.3_C3.2_[C-2A]_[T-1C]_H3.3_A3.1_F3.1_T3.2 (ssRNA) RNA: UUUGAUUAAUAUGAUAUCGUUCUUUCUACACACUAUAUAUUCUUUCUCGAUAUCAUAUUAAUCUUU | 242

Row | Binder | Kd [nM]
20 | Id_i_S2_P3E.2_K3.1_C3.2_[C-2T]_[T-1C]_H3.1_A3.1_F3.1_T3.2 (ssRNA) RNA: UUUGAUUAAUAUGAUAUCGUUCUUUCUUCUGUAUAUAUAUUCUUUCUCGAUAUCAUAUUAAUCUUU | 1.18
21 | Id_i_S2_P3E.3_K3.2_C3.2_[C-2T]_[T-1A]_H3.2_A3.1_F3.1_T3.2 (ssRNA) RNA: UUUGAUUAAUAUGAUAUCGUUCUUUCUUAUAUAUAUAUAUUCUUUCUCGAUAUCAUAUUAAUCUUU | 560
22 | Id_ii_S2_P3E.4_K3.3_C3.2_[C-2T]_[T-1A]_H3.3_A3.1_F3.1_T3.2 (ssRNA) RNA: UUUGAUUAAUAUGAUAUCGUUCUUUCUUAACACUAUAUAUUCUUUCUCGAUAUCAUAUUAAUCUUU | 215
23 | Id_i_S2_P3E.2_K3.1_C3.2_[C-2T]_[T-1A]_H3.1_A3.1_F3.1_T3.2 (ssRNA) RNA: UUUGAUUAAUAUGAUAUCGUUCUUUCUUAUGUAUAUAUAUUCUUUCUCGAUAUCAUAUUAAUCUUU | 4.51
24 | Id_ii_S2_P3E.4_K3.3_C3.2_[C-2T]_[T-1C]_H3.3_A3.1_F3.1_T3.2 (ssRNA) RNA: UUUGAUUAAUAUGAUAUCGUUCUUUCUUCACACUAUAUAUUCUUUCUCGAUAUCAUAUUAAUCUUU | 222
25 | Id_ii_S2_P3E.4_K3.3_C3.2_[C-2A]_[T-1A]_H3.3_A3.1_F3.1_T3.2 (ssRNA) RNA: UUUGAUUAAUAUGAUAUCGUUCUUUCUAAACACUAUAUAUUCUUUCUCGAUAUCAUAUUAAUCUUU | 238
26 | Id_ii_S2_P3E.3_K3.2_C3.2_[C-2A]_[T-1C]_H3.2_A3.1_F3.1_T3.2 (ssRNA) RNA: UUUGAUUAAUAUGAUAUCGUUCUUUCUACUAUAUAUAUAUUCUUUCUCGAUAUCAUAUUAAUCUUU | 66.8
27 | UCUCUUGCUAUAUUAUCUCUU (ssRNA) [Ib_S1_P4E.1_K4.1_C4.1_H4.1_[T1G]_[G2C]_A4.1_F4.1_T4.1] | 481
28 | UCUCUUUGUAUACUUUCUCUU (ssRNA) [Ic_S1_P4E.1_K4.1_C4.1_H4.1_A4.1_[T7C]_F4.1_[A9T]_T4.1] | 5.99
29 | UCUCUUCUAUGUAUAUAUAUCUCUU (ssRNA) [Id_i_S1_P3E.5_K3.1_C3.3_[T-3C]_[C-2T]_[T-1A]_H3.1_A3.1_F3.1_T3.2] | 10.2
30 | UCUCUUGGCACACUAUAUAUCUCUU (ssRNA) [Id_i_S1_P3E.7_K3.3_C3.3_[T-3G]_[C-2G]_[T-1C]_H3.3_A3.1_F3.1_T3.2] | 821
31 | UCUCUUCUGUAUAUAUAUAUCUCUU (ssRNA) [Id_i_S1_P3E.6_K3.2_C3.3_[T-3C]_[C-2T]_[T-1G]_H3.2_A3.1_F3.1_T3.2] | 8.87
32 | UCUCUUAGACACUAUAUAUCUCUU (ssRNA) [Id_ii_S1_P3E.4_K3.3_C3.2_[C-2A]_[T-1G]_H3.3_A3.1_F3.1_T3.2] | > 2300
33 | UCUCUUAACACACUAUAUAUCUCUU (ssRNA) [Id_i_S1_P3E.7_K3.3_C3.3_[T-3A]_[C-2A]_[T-1C]_H3.3_A3.1_F3.1_T3.2] | 2180
34 | UCUCUUAAAUAUAUAUAUAUCUCUU (ssRNA) [Id_i_S1_P3E.6_K3.2_C3.3_[T-3A]_[C-2A]_[T-1A]_H3.2_A3.1_F3.1_T3.2] | 1040
35 | UCUCUUCAAUAUAUAUAUAUCUCUU (ssRNA) [Id_i_S1_P3E.6_K3.2_C3.3_[T-3C]_[C-2A]_[T-1A]_H3.2_A3.1_F3.1_T3.2] | 777
36 | UCUCUUCACUGUAUAUAUAUCUCUU (ssRNA) [Id_i_S1_P3E.5_K3.1_C3.3_[T-3C]_[C-2A]_[T-1C]_H3.1_A3.1_F3.1_T3.2] | 5.56
37 | UCUCUUAGCACACUAUAUAUCUCUU (ssRNA) [Id_i_S1_P3E.7_K3.3_C3.3_[T-3A]_[C-2G]_[T-1C]_H3.3_A3.1_F3.1_T3.2] | > 2300
38 | UCUCUUCUCUGUAUAUAUAUCUCUU (ssRNA) [Id_i_S1_P3E.5_K3.1_C3.3_[T-3C]_[C-2T]_[T-1C]_H3.1_A3.1_F3.1_T3.2] | 4.39

Row | Binder | Kd [nM]
39 | UCUCUUUGUAUAAUUUCUCUU (ssRNA) [Ib_S1_P4E.1_K4.1_C4.1_H4.1_A4.1_[T7A]_F4.1_[A9T]_T4.1] | 8.41
40 | UCUCUUCAAUGUAUAUAUAUCUCUU (ssRNA) [Id_i_S1_P3E.5_K3.1_C3.3_[T-3C]_[C-2A]_[T-1A]_H3.1_A3.1_F3.1_T3.2] | 7.95
41 | UCUCUUCUAUAUAUAUAUAUCUCUU (ssRNA) [Id_i_S1_P3E.6_K3.2_C3.3_[T-3C]_[C-2T]_[T-1A]_H3.2_A3.1_F3.1_T3.2] | 341
42 | UCUCUUCGCUAUAUAUAUAUCUCUU (ssRNA) [Id_i_S1_P3E.6_K3.2_C3.3_[T-3C]_[C-2G]_[T-1C]_H3.2_A3.1_F3.1_T3.2] | 517
43 | UCUCUUUAACACUAUAUAUCUCUU (ssRNA) [Id_ii_S1_P3E.4_K3.3_C3.2_[C-2T]_[T-1A]_H3.3_A3.1_F3.1_T3.2] | 2160
44 | UCUCUUAAAACACUAUAUAUCUCUU (ssRNA) [Id_i_S1_P3E.7_K3.3_C3.3_[T-3A]_[C-2A]_[T-1A]_H3.3_A3.1_F3.1_T3.2] | 2250
45 | UCUCUUAACUGUAUAUAUAUCUCUU (ssRNA) [Id_i_S1_P3E.5_K3.1_C3.3_[T-3A]_[C-2A]_[T-1C]_H3.1_A3.1_F3.1_T3.2] | 6.08
46 | UCUCUUAAACACUAUAUAUCUCUU (ssRNA) [Id_i_S1_P3E.4_K3.3_C3.2_[C-2A]_[T-1A]_H3.3_A3.1_F3.1_T3.2] | > 2300
47 | UCUCUUGUCACACUAUAUAUCUCUU (ssRNA) [Id_i_S1_P3E.7_K3.3_C3.3_[T-3G]_[C-2T]_[T-1C]_H3.3_A3.1_F3.1_T3.2] | 39
48 | UCUCUUCACUAUAUAUAUAUCUCUU (ssRNA) [Id_i_S1_P3E.6_K3.2_C3.3_[T-3C]_[C-2A]_[T-1C]_H3.2_A3.1_F3.1_T3.2] | 144
49 | UCUCUUAUCACACUAUAUAUCUCUU (ssRNA) [Id_i_S1_P3E.7_K3.3_C3.3_[T-3A]_[C-2T]_[T-1C]_H3.3_A3.1_F3.1_T3.2] | 1520
50 | UCUCUUCAAACACUAUAUAUCUCUU (ssRNA) [Id_i_S1_P3E.7_K3.3_C3.3_[T-3C]_[C-2A]_[T-1A]_H3.3_A3.1_F3.1_T3.2] | 2040
51 | UCUCUUCCUAUAUUAUCUCUU (ssRNA) [Ib_S1_P4E.1_K4.1_C4.1_H4.1_[T1C]_[G2C]_A4.1_F4.1_T4.1] | 1290
52 | UCUCUUAGCUGUAUAUAUAUCUCUU (ssRNA) [Id_i_S1_P3E.5_K3.1_C3.3_[T-3A]_[C-2G]_[T-1C]_H3.1_A3.1_F3.1_T3.2] | 7.66
53 | UCUCUUAUCUGUAUAUAUAUCUCUU (ssRNA) [Id_i_S1_P3E.5_K3.1_C3.3_[T-3A]_[C-2T]_[T-1C]_H3.1_A3.1_F3.1_T3.2] | 6.91
54 | UCUCUUAUCUAUAUAUAUAUCUCUU (ssRNA) [Id_i_S1_P3E.6_K3.2_C3.3_[T-3A]_[C-2T]_[T-1C]_H3.2_A3.1_F3.1_T3.2] | 650
55 | UCUCUUAGCUAUAUAUAUAUCUCUU (ssRNA) [Id_i_S1_P3E.6_K3.2_C3.3_[T-3A]_[C-2G]_[T-1C]_H3.2_A3.1_F3.1_T3.2] | 805
56 | UCUCUUAAAUGUAUAUAUAUCUCUU (ssRNA) [Id_i_S1_P3E.5_K3.1_C3.3_[T-3A]_[C-2A]_[T-1A]_H3.1_A3.1_F3.1_T3.2] | 10.3
